# Measured values as given in the supplement of paper PMC10567573.
# B1: TRIM14 (parent)
# chain: YARTPTLDPDTMHARLRLSADRLT
# Variants of: B1
# Experiment: protein stability index of a GFP-peptide fusion (GPS, HEK-293T) (PSI 1-6); higher = more stable
# Settings: c terminus: a fixed tail appended
# 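Further: lentivirally expressed fusions sorted by FACS into six bins by GFP to DsRed ratio, PSI derived from sequencing read proportions per bin multiplied by bin number.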
row,Variant,protein stability index
1,YARTPTLDPDTMHARLRLSASRLT [D21S],3.05
2,YARTPTLDPDTMHARLRLSAVRLT [D21V],1.52
3,YARTPTLDPDTMHARLRLSATRLT [D21T],2.61
4,YARTPTLDPDTMHARLRLSAHRLT [D21H],3.32
5,YARTPTLDPDTMHARLRLSAERLT [D21E],2.53
6,YARTPTLDPDTMHARLRLSANRLT [D21N],2.54
7,YARTPTLDPDTMHARLRLSARRLT [D21R],2.02
8,YARTPTLDPDTMHARLRLSAMRLT [D21M],1.96
9,YARTPTLDPDTMHARLRLSAKRLT [D21K],2.06
10,YARTPTLDPDTMHARLRLSAYRLT [D21Y],1.6
11,YARTPTLDPDTMHARLRLLADRLT [S19L],2.33
12,YARTPTLDPDTMHARLRLRADRLT [S19R],2.88
13,YARTPTLDPDTMHARLRLEADRLT [S19E],2.93
14,YARTPTLDPDTMHARLRLYADRLT [S19Y],1.89
15,YARTPTLDPDTMHARLRLTADRLT [S19T],2.77
16,YARTPTLDPDTMHARLRLAADRLT [S19A],2.5
17,YARTPTLDPDTMHARLRLPADRLT [S19P],3.06
18,YARTPTLDPDTMHARLRLIADRLT [S19I],2.79
19,YARTPTLDPDTMHARLRLDADRLT [S19D],2.59
20,YARTPTLDPDTMHARLRLGADRLT [S19G],2.21
21,YARTPTLDPDTMHARLRLCADRLT [S19C],2.42
22,YARTPTLDPDTMHARLRLQADRLT [S19Q],2.72
23,YARTPTLDPDTMHARLRLMADRLT [S19M],2.06
24,YARTPTLDPDTMHARLRLNADRLT [S19N],3.01

row,Variant,protein stability index
1,YARTPTLDPDTMHARLRLVADRLT [S19V],3.62
2,YARTPTLDPDTMHARLRLWADRLT [S19W],1.77
3,YARTPTLDPDTMHARLRLFADRLT [S19F],1.99
4,YARTPTLDPDTMHARLRLHADRLT [S19H],2.26
5,YARTPTLDPDTMHARLRLKADRLT [S19K],2.29
6,YARTPTLDPDTMHARLRLSADYLT [R22Y],2.62
7,YARTPTLDPDTMHARLRLSADLLT [R22L],2.68
8,YARTPTLDPDTMHARLRLSADILT [R22I],2.74
9,YARTPTLDPDTMHARLRLSADSLT [R22S],2.81
10,YARTPTLDPDTMHARLRLSADVLT [R22V],2.26
11,YARTPTLDPDTMHARLRLSADGLT [R22G],2.76
12,YARTPTLDPDTMHARLRLSADCLT [R22C],2.76
13,YARTPTLDPDTMHARLRLSADTLT [R22T],2.62
14,YARTPTLDPDTMHARLRLSADDLT [R22D],3.09
15,YARTPTLDPDTMHARLRLSADWLT [R22W],2.01
16,YARTPTLDPDTMHARLRLSADELT [R22E],3.31
17,YARTPTLDPDTMHARLRLSADNLT [R22N],2.77
18,YARTPTLDPDTMHARLRLSADALT [R22A],2.57
19,YARTPTLDPDTMHARLRLSADHLT [R22H],2.97
20,YARTPTLDPDTMHARLRLSADPLT [R22P],2.31
21,YARTPTLDPDTMHARLRLSADKLT [R22K],2.33
22,YARTPTLDPDTMHARLRLSADMLT [R22M],2.16
23,YARTPTLDPDTMHARLRLSADFLT [R22F],2.52
